In patent US20140011978A1 (EPFL TTO, published 2014):

B1: TNC III1-5 (other)
chain: EVSPPKDLVVTEVTEETVNLAWDNEMRVTEYLVVYTPTHEGGLEMQFRVPGDQTSTIIQELEPGVEYFIRVFAILENKKSIPVSARVATYLPAPEGLKFKSIKETSVEVEWDPLDIAFETWEIIFRNMNKEDEGEITKSLRRPETSYRQTGLAPGQEYEISLHIVKNNTRGPGLKRVTTTRLDAPSQIEVKDVTDTTALITWFKPLAEIDGIELTYGIKDVPGDRTTIDLTEDENQYSIGNLKPDTEYEVSLISRRGDMSSNPAKETFTTGLDAPRNLRRVSQTDNSITLEWRNGKAAIDSYRIKYAPISGGDHAEVDVPKSQQATTKTTLTGLRPGTEYGIGVSAVKEDKESNPATINAATELDTPKDLQVSETAETSLTLLWKTPLAKFDRYRLNYSLPTGQWVGVQLPRNTTSYVLRGLEPGQEYNVLLTAEKGRHKSKPARVKASTEQAGGGSHHHHHH
notes: The secreted protein in the assays lacks the leader; also called TG-TNC III1-5; engineered TNC III1-5

Key:
TNC III1-5 [1] = biological target: B1; assay: SPR, TNC III1-5 on the chip, cytokine injected, BSA reference channel
Protocol: (§1) Surface plasmon resonance (SPR) was done to quantify the affinity of specific cytokines to TNC III1-5. […] Method: Surface plasmon resonance chips were functionalized with TNC III1-5 or BSA and cytokines were injected over the chips at different concentrations. The chips contained gold with free carboxyl groups that were activated to bind TNC III1-5 in one channel and BSA as a reference protein in another channel. The specific response of a cytokine to TNC III1-5 (in RU) was obtained relative to the response to BSA. Results are depicted in FIG. 5.

BSA [2] = biological target: T1, BSA (bovine, UniProt P02769); assay: ELISA: GST-fused TNC domains, GST and BSA coated, 2 nM PDGF-BB in solution, anti-PDGF-BB antibody and HRP secondary, A450
T1 construct: negative control; also called bovine serum albumin
Protocol: An ELISA was performed to test the affinity of different domains present in TNC1-5 to PDGF-BB as an example cytokine that has shown to bind TNC III1-5. Domain TNC III5 was defined to be responsible for cytokine binding. Method: ELISA plates were coated with individual TNC domains fused to GST, as well as GST and BSA. Wells were blocked with BSA and then incubated with 2 nM PDGF-BB. Binding of PDGF-BB was detected using an anti-PDGF-BB antibody and then a secondary horseradish peroxidase conjugated antibody.

TNC III1-5 [3] = biological target: B1; assay: SPR: TNC III1-5 on the chip, BSA in the reference channel, cytokine injected at rising concentrations; Langmuir fit (legend paragraph 11 says TNC III5, Example 5 paragraph 115 says TNC III1-5)
Protocol: as §1

BSA [4] = biological target: T1, BSA; assay: ELISA: PDGF-BB or BSA coated, TNC III1-5 in solution at 0 to 1.2 µM, A450
Protocol: ELISA plates were coated with cytokines or BSA and further incubated with TNC III1-5 to analyze binding of TNC III1-5 to a wide variety of cytokines. […] A large amount of heparin (4 μM) impaired binding of TNC III1-5 to these cytokines. Results are depicted in FIG. 3. Method: 50 nM of cytokine was coated for (1 hr, 37° C.). After blocking with 2% BSA (1 hr, RT). […] TNC III1-5 was detected with horseradish peroxidase (HRP)-anti-HIS in PBST (1 hr, RT) and developed with 3,3′,5,5′-tetramethylbenzidine (TMB), a soluble colorimetric HRP […]. Addition of sulfuric acid stop solution changes the color to yellow, enabling accurate measurement of the intensity at 450 nm using a spectrophotometer or plate reader. […] Heparin (4 μM) was added to TNC III1-5 to test the effect of blocking the heparin binding site of TNC III1-5, which has been defined as domain TNC III5 (Weber, Zimmermann, et al., 1995).

FGF-9 = assay: ELISA: cytokine coated (50 nM), 100 nM TNC III1-5 in solution, HRP-anti-His, A450
Protocol: (§2) ELISA plates were coated with cytokines or BSA and further incubated with TNC III1-5 to analyze binding of TNC III1-5 to a wide variety of cytokines. […] A large amount of heparin (4 μM) impaired binding of TNC III1-5 to these cytokines. Results are depicted in FIG. 3. Method: 50 nM of cytokine was coated for (1 hr, 37° C.). After blocking with 2% BSA (1 hr, RT). 100 nM TNC III1-5 was applied in PBST (0.05% tween, 0.1% bovine serum albumin (BSA)) (1 hr, RT). TNC III1-5 was detected with horseradish peroxidase (HRP)-anti-HIS in PBST (1 hr, RT) and developed with 3,3′,5,5′-tetramethylbenzidine (TMB), a soluble colorimetric HRP […]. Addition of sulfuric acid stop solution changes the color to yellow, enabling accurate measurement of the intensity at 450 nm using a spectrophotometer or plate reader. […] Heparin (4 μM) was added to TNC III1-5 to test the effect of blocking the heparin binding site of TNC III1-5, which has been defined as domain TNC III5 (Weber, Zimmermann, et al., 1995).

HGF = HGF (UniProt P14210 32-728); assay: ELISA: cytokine coated (50 nM), 100 nM TNC III1-5 in solution, HRP-anti-His, A450; black bars without, white bars with 4 µM heparin
Protocol: as §2

T1 sequence (P02769 25-607 limits assumed): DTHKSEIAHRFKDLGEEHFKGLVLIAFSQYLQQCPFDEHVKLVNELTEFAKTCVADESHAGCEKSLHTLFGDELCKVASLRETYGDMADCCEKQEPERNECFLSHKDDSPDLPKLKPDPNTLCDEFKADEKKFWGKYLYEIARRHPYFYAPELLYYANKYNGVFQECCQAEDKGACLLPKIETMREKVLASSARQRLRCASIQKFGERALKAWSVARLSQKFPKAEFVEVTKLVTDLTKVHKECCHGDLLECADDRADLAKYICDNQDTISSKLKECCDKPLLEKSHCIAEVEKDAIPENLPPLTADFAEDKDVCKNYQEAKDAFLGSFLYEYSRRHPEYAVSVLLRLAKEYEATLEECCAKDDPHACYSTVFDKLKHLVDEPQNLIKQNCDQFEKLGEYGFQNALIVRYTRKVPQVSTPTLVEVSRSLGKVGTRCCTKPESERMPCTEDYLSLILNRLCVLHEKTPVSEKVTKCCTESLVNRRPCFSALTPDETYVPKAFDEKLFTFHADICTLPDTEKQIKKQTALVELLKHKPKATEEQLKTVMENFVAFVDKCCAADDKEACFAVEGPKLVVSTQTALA
HGF, sequence (P14210 32-728 limits assumed): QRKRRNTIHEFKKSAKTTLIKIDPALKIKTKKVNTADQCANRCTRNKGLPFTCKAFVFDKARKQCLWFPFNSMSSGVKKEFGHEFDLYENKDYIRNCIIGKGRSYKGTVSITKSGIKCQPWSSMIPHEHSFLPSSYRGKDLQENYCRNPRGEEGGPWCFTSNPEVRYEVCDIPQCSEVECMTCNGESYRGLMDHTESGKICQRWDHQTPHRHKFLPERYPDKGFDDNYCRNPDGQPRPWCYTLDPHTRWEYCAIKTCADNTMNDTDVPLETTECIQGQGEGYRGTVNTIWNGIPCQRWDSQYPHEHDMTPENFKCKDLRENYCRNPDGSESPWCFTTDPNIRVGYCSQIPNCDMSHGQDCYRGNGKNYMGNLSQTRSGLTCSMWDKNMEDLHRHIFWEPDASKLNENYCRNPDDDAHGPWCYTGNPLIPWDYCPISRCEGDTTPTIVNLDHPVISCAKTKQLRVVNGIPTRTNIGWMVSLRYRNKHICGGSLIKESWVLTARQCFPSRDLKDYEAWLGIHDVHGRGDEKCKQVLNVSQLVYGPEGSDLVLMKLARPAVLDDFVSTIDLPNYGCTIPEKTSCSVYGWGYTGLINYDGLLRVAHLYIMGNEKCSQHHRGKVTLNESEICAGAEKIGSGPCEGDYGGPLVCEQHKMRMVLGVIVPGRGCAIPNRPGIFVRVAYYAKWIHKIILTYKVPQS

Binder	Kd (TNC III1-5 [1])	binding result (BSA [2])	koff (TNC III1-5 [3])	kon (TNC III1-5 [3])	binding result (BSA [4])	binding result (FGF-9)	binding result (HGF)
PDGF-BB (ligand, UniProt P01127 82-190, looked up, The name implies a homodimer of B chains) SLGSLTIAEPAMIAECKTRTEVFEISRRLIDRTNANFLVWPPCVEVQRCSGCCNNRNVQCRPTQVQLRPVQVRKIEIVRKKPIFKKATVTLEDHLACKCETVAAARPVT	3.9 nM	no binding (tested: 2 nM PDGF-BB)	0.0202 s⁻¹	5.23e+06 M⁻¹ s⁻¹	–	–	–
NT-3 (ligand, UniProt P20783 139-257, looked up) YAEHKSHRGEYSVCDSESLWVTDKSSAIDIRGHQVTVLGEIKTGNSPVKQYFYETRCKEARPVKNGCRGIDDKHWNSQCKTSQTYVRALTSENNKLVGWRWIRIDTSCVCALSRKIGRT	21 nM	–	0.00106 s⁻¹	50700 M⁻¹ s⁻¹	–	–	–
B1	–	–	–	–	no binding (tested: 1.2 µM)	no binding (tested: 100 nM)	binds
